According to article doi:10.1101/2022.03.12.484092:

Biological target: SARS-CoV-2 nucleocapsid N-terminal domain (NTD) (SARS-CoV-2, UniProt P0DTC9 41-174)
Assay: fluorescence intensity titration

## UCUCUAAACG (ssRNA) [10-mer RNA]
  binding result: binds
